{
  "source": "paper PMC5374532",
  "about": "“Rational mutagenesis by engineering disulphide bonds improves Kluyveromyces lactis beta-galactosidase for high-temperature industrial applications” (Scientific Reports, 2017)",
  "proteins": {"B1": {"name": "Kl-β-Gal (Kluyveromyces lactis β-galactosidase) (Kluyveromyces lactis NRRL Y-1140) (protein)", "chain": "SCLIPENLRNPKKVHENRLPTRAYYYDQDIFESLNGPWAFALFDAPLDAPDAKNLDWETAKKWSTISVPSHWELQEDWKYGKPIYTNVQYPIPIDIPNPPTVNPTGVYARTFELDSKSIESFEHRLRFEGVDNCYELYVNGQYVGFNKGSRNGAEFDIQKYVSEGENLVVVKVFKWSDSTYIEDQDQWWLSGIYRDVSLLKLPKKAHIEDVRVTTTFVDSQYQDAELSVKVDVQGSSYDHINFTLYEPEDGSKVYDASSLLNEENGNTTFSTKEFISFSTKKNEETAFKINVKAPEHWTAENPTLYKYQLDLIGSDGSVIQSIKHHVGFRQVELKDGNITVNGKDILFRGVNRHDHHPRFGRAVPLDFVVRDLILMKKFNINAVRNSHYPNHPKVYDLFDKLGFWVIDEADLETHGVQEPFNRHTNLEAEYPDTKNKLYDVNAHYLSDNPEYEVAYLDRASQLVLRDVNHPSIIIWSLGNEACYGRNHKAMYKLIKQLDPTRLVHYEGDLNALSADIFSFMYPTFEIMERWRKNHTDENGKFEKPLILCEYGHAMGNGPGSLKEYQELFYKEKFYQGGFIWEWANHGIEFEDVSTADGKLHKAYAYGGDFKEEVHDGVFIMDGLCNSEHNPTPGLVEYKKVIEPVHIKIAHGSVTITNKHDFITTDHLLFIDKDTGKTIDVPSLKPEESVTIPSDTTYVVAVLKDDAGVLKAGHEIAWGQAELPLKVPDFVTETAEKAAKINDGKRYVSVESSGLHFILDKLLGKIESLKVKGKEISSKFEGSSITFWRPPTNNDEPRDFKNWKKYNIDLMKQNIHGVSVEKGSNGSLAVVTVNSRISPVVFYYGFETVQKYTIFANKINLNTSMKLTGEYQPPDFPRVGYEFWLGDSYESFEWLGRGPGESYPDKKESQRFGLYDSKDVEEFVYDYPQENGNHTDTHFLNIKFEGAGKLSIFQKEKPFNFKISDEYGVDEAAHACDVKRYGRHYLRLDHAIHGVGSEACGPAVLDQYRLKAQDFNFEFDLAFE", "notes": "full length, N-terminal FLAG tag kept (YEpFLAG vector); monomer 118 kDa; active as dimer and tetramer"}},
  "substrate": "O=[N+]([O-])c1ccc(O[C@@H]2O[C@H](CO)[C@H](O)[C@H](O)[C@H]2O)cc1",
  "assay": "purified protein",
  "assay_type": "biochemical, Kluyveromyces lactis",
  "settings": "Z buffer (100 mM Na2HPO4, 40 mM NaH2PO4, 10 mM KCl, 1.6 mM MgSO4), 30 °C, 0.3 μg/mL enzyme, substrate 0-20 mM",
  "data": [
    {"protein": "B1", "values": [
      {"measurement": "Km", "value": "2150 ± 520", "unit": "µM"},
      {"measurement": "Vmax", "value": 71.9, "unit": "µmol/min/mg"}
    ]}
  ]
}
